This note sets out measurements from the DeepSol protein solubility set.

This series can be described thus: soluble on expression in E. coli; label from the status in PepcDB or PDB records.
In the case of “MGSDKIHHHHHHMRELRYNPLTGQWIMVSAVRKNRPWRPRNFCPFCPGSEETGYGWEVLLLPNRFPMLSFDAPKPKNEDFYKKARAMGQCSVIVETPKHELRDLDELPREQMVKIVRMWIKITETLKENRNVAYLAIFRNKGEEIGVSLKHPHGQLYALPYIPLKVRLKIENSRRYYKRTGECIFCRIIKEEEKNGERTIYENDNFIVFMPFFASWPFEVHIYPKRHIQYLTDLKVNEIEDLAEVIQVTTATLNAVLDRQMPYAMMIFQAPFKGNYPFYHLHIEFYPILRDNGKVKYTAGIELGTWEFTYDGIPEENARKLKEACKKVSQRMSLKGKCI”, the “soluble on expression in E. coli” value was “not soluble”.
Regarding “MSKSTAEIRQAFLDFFHSKGHQVVASSSLVPHNDPTLLFTNAGMNQFKDVFLGLDKRNYSRATTSQRCVRAGGKHNDLENVGYTARHHTFFEMLGNFSFGDYFKHDAIQFAWELLTSEKWFALPKERLWVTVYESDDEAYEIWEKEVGIPRERIIRIGDNKGAPYASDNFWQMGDTGPCGPCTEIFYDHGDHIWGGPPGSPEEDGDRYIEIWNIVFMQFNRQADGTMEPLPKPSVDTGMGLERIAAVLQHVNSNYDIDLFRTLIQAVAKVTGATDLSNKSLRVIADHIRSCAFLIADGVMPSNENRGYVLRRIIRRAVRHGNMLGAKETFFYKLVGPLIDVMGSAGEDLKRQQAQVEQVLKTEEEQFARTLERGLALLDEELAKLSGDTLDGETAFRLYDTYGFPVDLTADVCRERNIKVDEAGFEAAMEEQRRRAREASGFGADYNAMIRVDSASEFKGYDHLELNGKVTALFVDGKAVDAINAGQEAVVVLDQTPFYAESGGQVGDKGELKGANFSFAVEDTQKYGQAIGHIGKLAAGSLKVGDAVQADVDEARRARIRLNHSATHLMHAALRQVLGTHVSQKGSLVNDKVLRFDFSHNEAMKPEEIRAVEDLVNTQIRRNLPIETNIMDLEAAKAKGAMALFGEKYDERVRVLSMGDFSTELCGGTHASRTGDIGLFRIISESGTAAGVRRIEAVTGEGAIATVHADSDRLSEVAHLLKGDSNNLADKVRSVLERTRQLEKELQQLKEQAAAQESANLSSKAIDVNGVKLLVSELSGVEPKMLRTMVDDLKNQLGSTIIVLATVVEGKVSLIAGVSKDVTDRVKAGELIGMVAQQVGGKGGGRPDMAQAGGTDAAALPAALASVKGWVSAKLQ”, the “soluble on expression in E. coli” value was “soluble”.
As for “MAQSETVERILDAAEQLFAEKGFAETSLRLITSKAGVNLAAVNYHFGSKKALIQAVFSRFLGPFCASLEKELDRRQAKPEAQHATLEDLLHLLVSQAMAVKPRSGNDLSIFMRLLGLAFSQSQGHLRKYLEEVYGKVFRRYMLLVNEAAPKLPPIELFWRVHFMLGAAAFSMSGIKALRAMAETDFGVNTSTEQVMHLMVPFFAAGMRAESGIDDPLLAGAQLRPRNKTPAKA”, the entry is “soluble”; as for “MHLDRQSLEKAKHLIQSGLIDTIEVGTIKGLQEIHRFLFEGLYEFAGKIRDKNIAKGNFRFANCLYLDLILPRIESMPQNNFNQIVEKYVEMNIAHPFLEGNGRATRIWLDLLLKKELKKIVLWDRIDKAAYLSAMERSPVNDLEIKTLLKKHLSSNTNDPLTLIKGITQSYYYEGL”, “soluble”.
As for “MGSDKIHHHHHHMALFESYDRRIDHINAVLNEYGINGIEDAKAICDAKGIDPYTMCKETQPICFENACWAYVVGAAIAIKKGCTNAAEAAEAIGIGLQAFCIAGSVADDRKVGIGHGNLAARLLREETKCFAFLAGHESFAAAEGAIKIAEMANKVRKEPLRVILNGLGKDAAKIISRINGFTYVQTQFDYMTGEVNVIEEKAYSNGLRAKVKCYGADDVREGVAIMRKEGVDVSITGNSTNPTRFQHPVAGTYKKECMENGHPYFSVASGGGTGRTLHPDNMAAGPASYGMTDTMGRMHGDAQFAGSSSVPAHVEMMGFLGMGNNPMVGATVAVAVAIEEAMKK”, the entry is “not soluble”.
With “MGSDKIHHHHHHMQEERSEKKIGPFKFQSNFEWKEFPQEEFEWFVKEVEKRFGLNLSSYKPQRVKRRTELLLRKYNVGYREYLNMLIKDKKYLDEFMDKMTINVTEFFRNPEKWWELRDEIIPLIAKNSLRMKFWSAGCSSGEEPYSLAILVHELNLSYKTRILATDIDIGVLRRAQEGIYEERAFVSTPKEYLEKYFEKLPDGRYRIKDSVKKIVEFKRHDLLKDPFEKNFDLIVCRNVVIYFEPEAKNELYRKFAESLKPGGFLFVGNTERIFNYKELGFEIYKPFIYRKVK”, the “soluble on expression in E. coli” value was “not soluble”.
As for “GSHMKVDITIKIQRDGQEIEIDIRVSTGKELERALQELEKALARAGARNVQITISAENDEQAKELLELIARLLQKLGYKDINVRVNGTEVKIEVRV”, the entry is “soluble”; as for “ARQVICWCFTLNNPLSPLSLHDSMKYLVYQTEQGEAGNIHFQGYIEMKKRTSLAGMKKLIPGAHFEKRRGTQGEARAYSMKEDTRLEGPWEYGE”, “soluble”; as for “MGSDKIHHHHHHMSAFWPFRLTTGCNVNLKFLETFIWVAKLRSFSLAADKLHSTQAAISSRISVLEQELGAKLFTREPKGVALTRAGERVLQHAEQVNESMTRLYASLQDEKFAFGTIRIGAMDSAIHSWFVNFVSDVMHYYPNLDIEVTSETALNLNEQLRRGMLDMVIQTDMLRDETIRSIEVLELSMGWVAAANSPIVSQEAYDTPTAALRGLGRERLITYSRHSRPHQDLLRLMQSYGIGESRVSCVNSVAAMIQLTQAGFGVAAMPPALVPELLNSGVLRQLEGLEAPPPLPFVIAWRSGTNWTERLVEVAVETVSKYAARLGQDAARLVV”, “not soluble”.
As for “MARKLIDISVPLQNDVPADPPGNHPTIQYIDHQQGLPRMLQFFPGLKAEDLPDGQGWAVEQVSLSTHNGTHLDAPWHFHPTMNRGERALTIDEVPLDWCLQPGVKLDFRHLPDGYVVTAKDVENELERIGHTLAPLEIVVVNTSAGAKFGRPDYVNSGCGVGYEATMYLLERGVRLTGTDAWSWDAPFVFTAQRYAETKDASLIWEGHKASRHIGYCHLEKLHNLELLPATGFMVSCFPVKIERASAGWTRAVAILNDAAALEHHHHHH”, the “soluble on expression in E. coli” value is “soluble”.
As for “MTHNQSTALLTDMYELTMLQSALADGTAERQCTFEVFGRRLPNERRYGVVAGTPRVLEAVQNFRFTEAQLASLTFLNDTTLEYLRNYRFAGHIDGYREGELYFPHSPILTVRGTFAECVILETVILSIMNADSAVATAAARMVTAADGRTIIEMGSRRTHEYAAVTATRAAYLAGFSATSNLEAVHRYGIPGSGTAAHAWTLLHVNEDGTPNEKSAFESQVRAQGTGTTLLIDTYDIAQGVRNAIEVAGPELGAVRIDSGDLGVMTRKIRQELDNLGAHNTQIVVSSDLDEYAIAGLRGNPVDVFGVGTSVVTGSGAPTAGMVYKLVEVDGNPVSKRSRGKGMLGGAKRAARTHRASGTAVEELVFPYEHPVPQVGTLTSVELTIPLMRDGVVVEGLPTLEESRAYLAQQLVTIPWEGLALSRDEPVLATRHVGFDQLEHHHHHH”, the entry is “soluble”; as for “MARYEEVSVSGFEEFHRAVEQHNGKTIFAYFTGSKDAGGKSWCPDCVQAEPVVREGLKHISEGCVFIYCQVGEKPYWKDPNNDFRKNLKVTAVPTLLKYGTPQKLVESECLQANLVEMLFSED”, “soluble”.
For “MGSDKIHHHHHHMERAMKILAHRGWWLEPVEKNSETAFRRAFENGFGVETDTRDQNGVLKIAHDMPVGDQVMDLDYFLDLHKSYAGSGTIAMNIKADGLHKALRASLEGAGITDLFCFDMAVPDAIGYLNNGFITYTRHSELEPLPPFYDKAQGVWLDAFYSDWITPDVIQKHLDAGKKVALVSPELHGRDHTAAWDVWGDLTGDDISICTDLPHLAAEKWG”, the “soluble on expression in E. coli” value is recorded as “not soluble”.
“KGGVWRNTEDEILKAAVMKYGKNQWSRIASLLHRKSAKQCKARWYEWLDPSIKKTEW”: the “soluble on expression in E. coli” value is “soluble”.
In the case of “EGNITTVYFRSRDITAQKIAEKVLLDNERKLKTVYENSIQFLTVLDLDRKFIWFNKNARDRSPAVFGKDLIVGEVAESYIAKEYRTGFVENFNKAVAGETITYTRKYALNNAPFFLELSLAPVYNNDNTVVGVALTGIN”, the “soluble on expression in E. coli” value is “not soluble”.
As for “ALAKRIDAALILKDGRVVKGSNFENLRDSGDPVELGKFYSEIGIDELSFWDITASVEKRKTMLELVEKVAEQIDIPITVGGGIYDFETASELILRGADKVEINTAAVENPSLITQIAQTFGSQAVVVYIAAKRVDGEFMVFTYSGTKNTGILLRDWVVEVEKRGAGEIVLGSIDRLGTKSGYDTEMIRFVRPLTTLPIIAHRGAGKTEHFLEAFLAGADAAKADSVFHSREIDVRELKEYLKKHGVNVRLEGLGSLEHHHHHH”, the entry is “soluble”; as for “MDKKELVEKIALNTLVFETLGQPEKEREFTIQDLRRWGFDLILGKKNGVRTFFASQAGREVGDKWEEGGATYEIEEILLELPENKKLFAHIETSEGVAYIVAELREGKENLEILRTPAPTLLMAFFKKHRLHELANNLKSVGVITEFYKQRGRESLPLPYKKLPLVARDFLERAKKVEKMAGFGRVALAYFGKTREKDNRFRVSWLLPTIALFDIDISEKANTALEEFK”, “soluble”; as for “MGSDKIHHHHHHMLELRHLRTLIALRDAGSLVEAAERVHLTQSALSHQIKDLEERLGSPLFLRKTRPVTFTRAGERLLALAEQILPQIRMAERDLARLAGHEQGRLHMAIECHSCFQWLMPTIDHFRDHWPEVEVDIPSGYSFDALPSLARESLDLVITADPQPLAGIHYEPLFRYEGLLAVGKQHPLARRDWVTPEELARETLITYPVEHTRLDVFTQFLTPAGFTPAEVRTAELTIMMMQLVASGRGVCALPNWALTEYLERGYVRALHLGEQGVWSTLFAAIREESRDAPWMEDFLRTARETSFAVLAGIKPA”, “not soluble”.
As for “MIFYFSGTGNSKWIANQLSKEQQEDLFFIPDAWKNDTWEFSLREDEKIGFVFPVYSWAPPVIVQEFIRKLVLKGYQQQYLFFVCSCGDDTGLTRQVMEKALAARGWRCNAGFSVIMPNNYVLFLGFDVDSKELEKKKLAEAVPALEKVSRLITGRETVFACKEGSLPFIKTRIINPLFVRYQMSPKPFHATSECIGCKRCEKSCPVGNITMKERRPVWGKNCTACLACYHVCPQHAVQYGKKTKGKGHYFNPDSAYLEHHHHHH”, the entry is “soluble”; as for “MKRSHLENALNYALENSETAYNEMFLECDKQFILESWLNDFDLTKDYNETMHLVFSIKDKPDEETMQGLLHSTWESLKIRLPEYKFALVPHAHQDHAHIHCFINKTNQLTRRRLRFKGHEDCKEFFNELRSEFAYRLNDHLLSEEYLYVNEPKLKELDNIKQQLQDLEKEEKALEQIKSPQDEWDLNKALQSEYLQELKYKNKAKALDIQNNHSTPLKQKISEFKIALFNHKDTSDDEKEQLDIDRIDKRKPVSEHLKNTNKHELYELLGFYQKELDKKQNHSAFKNFAILNGLDRDFERETNGYSVLKKKEMLLNKLEHLDKRLLDKNSHLLLAQ”, “not soluble”; as for “MALKNNTLWTGPKPEANCIIEYGKQNPDSKLTLILVKNGGIVNGYVTLMGASDYVNTLFKNKNVSINVELYFDATGHILPDSSSLKTDLELKYKQTADFSARGFMPSTTAYPFVLPNAGTHNENYIFGQCYYKASDGALFPLEVTVMLNKRLPDSRTSYVMTFLWSLNAGLAPETTQATLITSPFTFSYIREDD”, “soluble”.
On to “MGSDKIHHHHHHMDGTRERPMRKIIAATFVSLDGVMQAPGGPEEDPVGGFKFGGWTFHYFDEVGGAAMDELFSKPFTLLLGRRTYDIFTAYWPYQKDPIADAFNPATKYVATHRPDTLTWQNTQWLGEDIVAALRRLSKQDGPDLLIQRSADLIQTLLANGLIDEIRLMIFPLLLGKGKRLFGDGAMPAAFKLVKSQTSSTGVIIATYERSGEIEVGSFVMGEPSVAELERRRNWK”, for which the “soluble on expression in E. coli” value was “not soluble”.
